Data reported in patent publication US20030096753A1 (published 2003).

Experiments:
[1] = target: T1, Purified recombinant human NGF (human, UniProt P01138 122-241, limits assumed, radioiodinated with 125I (lactoperoxidase method) where used as tracer); assay: competitive binding assay, 125I-NGF on A875 cells (p75NGFR), numerical fit
T1 construct: also called unlabeled human NGF
Description: (§1) The binding affinity of ¹²⁵I-NGF to the Ig-like domains of TrkA was determined by a competitive binding assay using the melanoma cell line A875 American Tissue Culture Collection (ATCC) which expresses the NGF receptor p75^NGFR.
(§2) Purified recombinant human NGF was radioiodinated with I¹²⁵ using a lactoperoxidase method and equilibrium binding with [¹²⁵I]-NGF was carried out (Treanor et al., 1991; Neuroscience Letters 121 p73-76). Briefly A875 cells (10⁶ per ml) were incubated with [¹²⁵I]-NGF (0.14 nM) and serial dilutions of unlabeled human NGF (concentration range: 10⁻⁶ M to 1×10⁻¹¹ M), TrkAIg1,2 (concentration range: 4×10⁻⁶ M to 1×10⁻¹¹ M) or TrkAIg2 (concentration range 5×10⁻⁶ M to 1×10 ⁻¹¹ M). Tubes were shaken vigorously at room temperature for 1 hr. 100 μl aliquots were then layered over 200 μl sucrose (0.15 M in binding buffer) in Beckman tubes. After centrifugation (15 seconds at 20,000 g) bound and free [¹²⁵I]-NGF were separated by freezing the tubes in liquid nitrogen and determining the bound [¹²⁵I]-NGF of the cell pellet. Binding reactions were carried out in triplicate. Counts were corrected for background and specific binding was between 85-87% of total binding. The competitive binding assay (FIG. 9) allowed estimation of the binding affinity of [¹²⁵I]-NGF to the recombinant TrkAIg2 protein. […]

[2] = target: 7S NGF (complex of 2.5S (β-NGF) and γ NGF); assay: cell-based or functional assay
7S NGF (complex of 2.5S (β-NGF) and γ NGF), sequence (P01139 122-241, one chain of several): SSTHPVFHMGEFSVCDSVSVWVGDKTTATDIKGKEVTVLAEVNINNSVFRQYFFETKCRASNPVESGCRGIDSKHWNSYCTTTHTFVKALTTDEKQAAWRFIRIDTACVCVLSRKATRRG

[3] = target: T1, Purified recombinant human NGF; assay: competitive binding assay, 125I-NGF on A875 cells; reference TrkAIg1,2
Description: as §1, §2

[4] = target: NGF (source and species not stated; used in the BiaCore study and on PC12 cells); assay: SPR (BiaCore-X), TrkAIg2 amine-coupled to the chip, NGF 40 nM to 500 nM as analyte, BiaEval 3.0 fit
NGF (source and species not stated; used in the BiaCore study and on PC12 cells), sequence (chain, as listed by the source): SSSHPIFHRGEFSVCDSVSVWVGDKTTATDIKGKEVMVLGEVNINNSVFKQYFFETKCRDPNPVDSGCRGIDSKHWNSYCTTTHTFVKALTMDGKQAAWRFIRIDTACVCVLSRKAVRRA
Description: TrkAIg2 was covalently attached to the surface of the sensor chip by coupling with amine groups on TrkAIg2 to carboxyl groups on the surface using BiaCore Amine Coupling kit and varying concentrations of NGF passed over at a constant flow rate of 20 μl/min for two minutes. Data were collected for a range of NGF concentrations of 1 μM to 1 nM. […] However, data collected for the range 40 nM to 500 nM could be successfully evaluated.

[5] = target: T1, Purified recombinant human NGF; assay: displacement binding assays of the two Poros 20HQ peaks

T1 sequence (P01138 122-241 limits assumed): as the sequence (chain, as listed by the source) above

B1: TrkAIg1,2 (the two immunoglobulin-like domains and proline-rich region of TrkA, amino acids 160-375) (receptor)
chain: MGSSHHHHHHSSGLVPRGSHMLEGVPTLKVQVPNASVDVGDDVLLRCQVEGRGLEQAGWILTELEQSATVMKSGGLPSLGLTLANVTSDLNRKNLTCWAENDVGRAEVSVQVNVSFPASVQLHTAVEMHHWCIPFSVDGQPAPSLRWLFNGSVLNETSFIFTEFLEPAANETVRHGCLRLNQPTHVNNGNYTLLAANPFGQASASIMAAFMDNPFEFNPEDPIPDTNSTSGDPVEKKDE
notes: The range counts on the mature extracellular domain; also called TrkAIg1,2 domain
- Kd [1]: 3.3 nM

B2: TrkAIg2 (his TrkAIg2; TrkA Ig-like sub-domain 2 together with the proline rich region, amino acids 253-375; first, active peak from Poros 20HQ) (receptor)
chain: MGSSHHHHHHSSGLVPRGSHMPASVQLHTAVEMHHWCIPFSVDGQPAPSLRWLFNGSVLNETSFIFTEFLEPAANETVRHGCLRLNQPTHVNNGNYTLLAANPFGQASASIMAAFMDNPFEFNPEDPIPDTNSTSGDPVEKKDE
notes: The range 253-375 counts on the mature extracellular domain, not on the precursor; Removal of the His tag is not reported; also called TrkIg2; TrkAIg2 domain
- NGF-induced plasma extravasation in rat skin, co-injection [2]: 10 fold excess
- fold IC50 against TrkAIg1,2 [3]: 3 fold
- Kd [4]: 11.8 nM

B3: TrkAIg1 (his TrkAIg1; TrkA Ig-like sub-domain 1, amino acids 160-252) (receptor)
chain: MGSSHHHHHHSSGLVPRGSHMLEGVPTLKVQVPNASVDVGDDVLLRCQVEGRGLEQAGWILTELEQSATVMKSGGLPSLGLTLANVTSDLNRKNLTCWAENDVGRAEVSVQVNVSF
notes: Two peaks eluted from Poros 20HQ; both were tested in the displacement assay; also called first immunoglobulin-like domain
- binding result [5]: no binding
